Data on 8 sequences can be found in US20180119149.

Like-named read-outs stand apart in the source and are kept apart here.

Data set [1] addresses CTLA-4 (UniProt P16410). To be noted: bulk Kd, bead-based fluorescence.
The target of data set [2] is HER2 (ErbB2) (Homo sapiens) (UniProt P04626).
The target is the same in data set [3]. Particulars: bulk Kd, with formaldehyde cross-linking; about 5-fold higher Kd without.
The target of data set [4] is EGFR (UniProt P00533). Particulars: HER2 about 4 times higher.
Data set [5] has as its target ErbB3 (HER3) (UniProt P21860). To be noted: HER2 about 4 times higher.
Data set [6] has as its target T1, ErbB4 (HER4) (UniProt Q15303).
T1 sequence: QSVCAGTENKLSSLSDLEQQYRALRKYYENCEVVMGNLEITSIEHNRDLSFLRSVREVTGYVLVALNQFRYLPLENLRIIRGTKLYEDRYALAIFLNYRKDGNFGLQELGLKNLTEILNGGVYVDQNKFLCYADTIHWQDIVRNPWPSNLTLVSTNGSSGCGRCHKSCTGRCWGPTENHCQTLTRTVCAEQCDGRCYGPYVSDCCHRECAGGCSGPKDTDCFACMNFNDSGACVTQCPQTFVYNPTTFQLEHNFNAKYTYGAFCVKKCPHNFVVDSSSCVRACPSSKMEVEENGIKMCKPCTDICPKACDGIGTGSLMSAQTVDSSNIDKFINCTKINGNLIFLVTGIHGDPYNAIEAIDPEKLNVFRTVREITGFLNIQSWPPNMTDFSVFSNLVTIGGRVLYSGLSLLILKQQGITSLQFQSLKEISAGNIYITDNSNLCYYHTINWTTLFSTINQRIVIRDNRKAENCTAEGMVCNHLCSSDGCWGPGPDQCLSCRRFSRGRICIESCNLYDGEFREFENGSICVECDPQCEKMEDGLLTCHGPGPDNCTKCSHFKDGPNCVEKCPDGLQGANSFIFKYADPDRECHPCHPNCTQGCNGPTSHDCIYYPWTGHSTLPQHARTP
Particulars: HER2 about 4 times higher.

For data set [7], the system named is IgE (Homo sapiens). To be noted: bulk Kd, bead-based fluorescence.
For data set [8], the target named is PD-L1 (UniProt Q9NZQ7). To be noted: bulk Kd, bead-based fluorescence.
Sequence of PD-L1 (Q9NZQ7 19-238): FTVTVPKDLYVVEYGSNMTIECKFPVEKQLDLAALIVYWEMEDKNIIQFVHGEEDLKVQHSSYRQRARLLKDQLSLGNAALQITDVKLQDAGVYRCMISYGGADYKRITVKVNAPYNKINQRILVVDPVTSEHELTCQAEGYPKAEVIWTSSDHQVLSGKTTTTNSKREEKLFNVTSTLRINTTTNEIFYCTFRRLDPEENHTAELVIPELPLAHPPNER
Data set [9] deals with PDGF-BB (Homo sapiens) (UniProt P01127). Particulars: bulk Kd, bead-based fluorescence.
Sequence of PDGF-BB (Homo sapiens) (P01127 82-190): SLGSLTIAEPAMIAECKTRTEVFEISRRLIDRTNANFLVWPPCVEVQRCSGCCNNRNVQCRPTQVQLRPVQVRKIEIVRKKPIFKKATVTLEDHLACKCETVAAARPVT
Data set [10] has as its target ubiquitin (UniProt P0CG48). Particulars: bulk Kd, bead-based fluorescence.
In data set [11] the target is PDGF-BB (Homo sapiens) (UniProt P01127). To be noted: unselected library on PDGF-BB beads, with formaldehyde cross-linking.

Sequence of CTLA-4 (P16410 36-161): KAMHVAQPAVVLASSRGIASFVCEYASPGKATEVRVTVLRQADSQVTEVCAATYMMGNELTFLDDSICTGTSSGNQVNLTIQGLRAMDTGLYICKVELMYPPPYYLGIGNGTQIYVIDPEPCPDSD
Sequence of ErbB3 (HER3) (P21860 20-643): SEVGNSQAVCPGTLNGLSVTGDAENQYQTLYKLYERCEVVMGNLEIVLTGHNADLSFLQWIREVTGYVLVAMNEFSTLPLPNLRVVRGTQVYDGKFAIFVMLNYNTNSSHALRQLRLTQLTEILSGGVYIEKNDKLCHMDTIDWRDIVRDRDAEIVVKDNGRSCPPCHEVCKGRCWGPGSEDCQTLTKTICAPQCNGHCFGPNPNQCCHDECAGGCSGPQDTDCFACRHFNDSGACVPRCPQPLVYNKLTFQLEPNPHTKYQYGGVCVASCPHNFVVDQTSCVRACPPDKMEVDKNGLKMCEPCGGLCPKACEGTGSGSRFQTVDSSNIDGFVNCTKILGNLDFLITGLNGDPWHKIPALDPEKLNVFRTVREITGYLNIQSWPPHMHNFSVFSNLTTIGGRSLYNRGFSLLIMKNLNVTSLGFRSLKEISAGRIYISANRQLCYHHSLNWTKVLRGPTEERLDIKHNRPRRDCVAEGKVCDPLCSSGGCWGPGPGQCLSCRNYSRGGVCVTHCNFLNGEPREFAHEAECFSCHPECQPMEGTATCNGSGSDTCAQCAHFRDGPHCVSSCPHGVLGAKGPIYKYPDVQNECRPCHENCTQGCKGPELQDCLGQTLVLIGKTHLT

As to “AGCAGCACAGAGGTCAGATGNNNNNNNNNNNNNNNNNNNNNNNNNNNNNNNNNNNNNNNNCCTATGCGTGCTACCGTGAA [CTLA-4 round 3 pool]”, the Kd in data set [1] amounted to 10.4 nM. “AGCAGCACAGAGGTCAGATGNNNNNNNNNNNNNNNNNNNNNNNNNNNNNNNNNNNNNNNNCCTATGCGTGCTACCGTGAA [HER2 round 1 pool]” had a Kd in [2] (bulk Kd, with formaldehyde cross-linking) of 22.1 nM. For “AGCAGCACAGAGGTCAGATGNNNNNNNNNNNNNNNNNNNNNNNNNNNNNNNNNNNNNNNNCCTATGCGTGCTACCGTGAA [HER2 round 3 pool]”, the Kd in [3] turned out to be 6.8 nM. Moreover, the binding signal (fraction of HER2 signal) in data set [4], in [5] and in data set [6] was 0.25 in each case. Sequence “AGCAGCACAGAGGTCAGATGNNNNNNNNNNNNNNNNNNNNNNNNNNNNNNNNNNNNNNNNCCTATGCGTGCTACCGTGAA [IgE round 3 pool]” had a Kd in [7] of 8.4 nM. With “AGCAGCACAGAGGTCAGATGNNNNNNNNNNNNNNNNNNNNNNNNNNNNNNNNNNNNNNNNCCTATGCGTGCTACCGTGAA [PD-L1 round 3 pool]”, the Kd in data set [8] amounted to 15.5 nM. As to “AGCAGCACAGAGGTCAGATGNNNNNNNNNNNNNNNNNNNNNNNNNNNNNNNNNNNNNNNNCCTATGCGTGCTACCGTGAA [PDGF-BB round 3 pool]”, the Kd in data set [9] stood at 1.9 nM.

“AGCAGCACAGAGGTCAGATGNNNNNNNNNNNNNNNNNNNNNNNNNNNNNNNNNNNNNNNNCCTATGCGTGCTACCGTGAA [ubiquitin round 3 pool]” gave a Kd in data set [10] of 11.9 nM. “AGCAGCACAGAGGTCAGATGNNNNNNNNNNNNNNNNNNNNNNNNNNNNNNNNNNNNNNNNCCTATGCGTGCTACCGTGAA [unselected ssDNA library (N40)]” came in with a binding signal in data set [11] of less than 2 % bound. Besides, in data set [2] (no obvious binding), the Kd is greater than 1000 nM.

For orientation: Kd means a measure of binding affinity in units of concentration.
